Measurements taken from the DeepSol protein solubility set.

Test: soluble on expression in E. coli; label from the status in PepcDB or PDB records

Row | Sequence | soluble on expression in E. coli
1 | MSLKILITGSNGLLGQKLVSLLYLKPEITLIATARGANRDEIYEDYIYESMDITSEENVLKVFRKHKPDAVIHTAAMTHVDQCELNKEACVDQNITSVKHIVKACKEVGAFLLHVSTDFIFDGTRGPLTEEEIPNPVNYYGWTKWEAEKAVENSGLKWAIARTVLVFGVVQDMSRSNIVLWVKNNLEQKKEINVVNDQWRTPTLAEDLAMGCWLIVKNQAEGIFNISGEEMLSPYELAHKVADVWKLDKGLIKQADSSTFTQPALRPPKTGFIIDKAKKQLGYKPHTLEEGLDLLKEQLTEGHHHHHH | soluble
2 | MSLKILTIVVMSGNVISLNRPSANAAIRLGFTYEGRFRNHAIYKGRSRDTDWFSIIDSEWPVLKKRFENWLSPENFDEQGQQKRSLRDC | not soluble
3 | MSLKITDVQLTAIGMPRLTGFVNKHVIVQLFTDEGIEGIGEMSDFSHLPKYAVDIVDLERTLKQILVGKNPFDIAPINTELNGNFPEAMYYYEKGSFIRNGVDTALYDLCAKALGVSVSDLLGGRQREKIKVCFPIFRHRFMDEVEANLELVKKQYEKGFDVFRLYVGKNVDADEAFLAGVYNEFGGKVKVKSLDFSHLLDWKEALRITRRLAKYPIDLVESPALRNDFAGLHHFRMRCELPVSEHVWSLRQQSEMIKHDSVDIFNIAPVFIGGITQARKAADAAAVAEKSVLIGTTQELSIGTTAMAYFGSTLDHLNYISDPTGPELYVGDVVKNKVNYENGYLHLPERSTIGLGMELDWEKVEQYRVESLNWEDVSVHQLQDRTAQTRAEGHHHHHH | soluble
4 | MSLKITSIAVYQVDLPLREGNYAWSEGKSVSVFDSTVVRIETDSGIFGHGEVCPLGPVYLPAYAAGVRTGVAEIAPALIGDDPTELGKLNRKMDYLLKGHPYVKSALDVACWDIFGQAAGLPICTLLGGRYGEDFTLYRAISQRPAAEMAESVAMYRGEGYRRFQLKVGGDPNEDILRIFEAAEMLEPGDKLIADANTGWLKHEALRVVNAVRDVDVYIEQPCPSYEDCRAIRERTTLPFILDEVIDSVDMIVRCAADRAADVVNLKISKLGGLTKARQARDLCASLGLAMTIEDSWGGDIVTAAIAHLAHSTPTDYLFSSTDFNSYVTKSIADGAPQRDNGRLAAAREPGLGVKPKLDVLGKPVATYGKEGHHHHHH | soluble
5 | MSLKITTEQVCEALDTWVCRPGMTQEQATILITEAFWALKERPNIDVQRVTFNDGEVDQRALGVNRVKIFERWKAIDTRDKRDKFTALIPAIMEAIRISDFRLYCEITDGKSITYMIAGLNKEYGDVVESGLLFADPVVVERETDELIEKAIAFKHAYRQQYQYYFADKQMSARGAYEYRCTTMGEGHHHHHH | soluble
6 | MSLKIWGRKNSSNVRKALWIAHELGLDFESIDAGGAFGVVNEPHYRARNPNGLVPMLEDGDLTLWESNTIVRYLCAEYGTEQGWYLADPRQRALADKWMDWTTSSFATPFRPLFWGLLRTPEDQRDWVAINAAHKQCAQLLAIADETLASQPYLSGDQIGMGDIPLGSFIYAWFELPIERPDMYHLQAWYERLKQRPAYQAAVMTALTEGHHHHHH | soluble
7 | MSLKKALFLILDQYADWEGVYLASALNQREDWSVHTVSLDPIVSSIGGFKTSVDYIIGLEPANFNLLVMIGGDSWSNDNKKLLHFVKTAFQKNIPIAAICGAVDFLAKNGLLNNHSHTGNFVYLWKDYKQYKPISSFVEKQAVRDKNLVTANGTAPIEFTNLILEMIDFDTPENIEKMMYMNRYGFYHFCDKYGNPFVEGHHHHHH | soluble
8 | MSLKKLIAVAVLSACGSLAHANTNIPNYNTDAHLYEFTQTYDLVVPKGSQGQTNLWVPLPFNGEYQQVKSIHFEGNYMNAYVTENNKYGAKTLFATWNKDAQKRDLKVMMVIETKDREPMVKGALENYTPPKDIQYSVDVQEYLKATPHIKTDGIVKEFPDKILGKETNPLKKAELIHHWFVKNMERDNSVLGCGDGDVEKILTTGVLKGKCTDINSVFVALARAAGIPAREIFGIRLGAAEKMGKYSKGAFGSANEQGIANVSGGQHCRAEFYLAGFGWVPVDSADVAKMRLAEKKSVEDKDTQAVAKYLFGNWEANWVGFNHARDFDLYPQPELAPINNFGYPYAEVGGDPLNSFDPKEFKYDYVSKKLEGGSHHHHHH | soluble
9 | MSLKKQPLAYRMRPSNIDEVIGQQHLVGEGKIIRRMVDAGQLSSMILYGPPGVGKTSIAQAIAGSTDTHYKLLNAVVNNKKDMEIVVEEAKMSGQLILILDEVHRLDKGKQDFLLPHLEKGLLILIGATTANPFHSINPAIRSRCQIFELTPLTTDEIKVALTRALTDKTHGLGEEPVVISDEALAHFAFACGGDVRSALNGLELAVRSTQPNVKGEKEITLSVAEECIQRKSFHHDKDGDAHYDVLSAFQKSIRGSDVNAALHYLARLIEAGDLVSIGRRLLVIAYEDIGLANPQAGPRTLAAIEAAERLGFPEGRIPLANAVVELCLSPKSNSAYVALDAAIADIRKGHVGSVPAHLKDAHYKGAEQLGRGIGYKYPHDYERGWVKQQYLPDSLKSRAYYEPKRTGKFEDALADVYEKLRKSTFSEGHHHHHH | soluble
10 | MSLKKYTMNEMVDITKDMLNKRGVMIEDIARIVQKLQEKYNPNLPLSVCMENVEKVLNKREIIHAVLTGLALDQLAEQKLLPEPLQHLVETDEPLYGIDEIIPLSIVNVYGSIGLTNFGYLDKEKIGIIKELDESPDGIHTFLDDIVAALAAAAASRIAHTHQDLQDEEKEQDEKPVVSEGGSHHHHHH | soluble
11 | MSLKLFGTDGVRGKAGEFLDSFLAMRLAMAAGIYFKDKSITNNILVGKDTRRSGYMIENAIVSGLTSIGYNVIQIGPMPTPAIAFLTEDMRCDAGIMISASHNPYYDNGIKFFDAHGNKLSEDIEKKIEEIYFDDKLIQASKVDMEKIGQAKRIDDVIGRYIVSIKNSFPKDLTLKSLRVVLDVAHGAAYKVAPTVFKELGAEVIVMSDKPNGLNINENCGALHPANLAAEVKRLRADVGFAFDGDADRLVVVDEKGEVANGDSLLGVLALYLKEQGKLQSSVVATIMSNGALKEFLNKHGIELDTCNVGDKYVLEKLKANGGNFGGEQSGHIIFSDYAKTGDGLIAALQFSALMLSKKKSASSILGQVKPYPQLLTNLKIAEKKDLDKIKGLKELKKDLENKNINTLFRYSGTENLIRLLLEARDIKLLEKEMKNVVEFFKKALNGEGHHHHHH | not soluble
12 | MSLKLILNTQINTKLREIDISNETELIMSNDFPVNKIAMTGKVGYADMQGQRGTMEDALIVDSNIGIYAIFDGHGGHIVSSLSAQRIHERLQSLQNGSEFRELITQAVDSVVGELKEKKVLGGSTMCLVRVGQDKIEVANIGDSRCVAILKDGTQRQLSNDHKPTYRPEVERIREKGSFVSKGRVQGRLAVARAIGDFAVLGIESVIEFTEIDKDIVSRIVIGCDGLYDVVSNEDCLKICNENQSAVTTAYKLRDRAFQRGSTDNISVIVVDCLEGHHHHHH | soluble
13 | MSLKLLFFDTETTGVKPGSICQLSYILVDTSTKPQKTIGKNIFFTVDEMEPEAERIHGFSLEKLYELSEGMYFEDLYADFINDFLEADFIIGHNVQFDIKFLKHELLGLGEFFEPNNVFCTMKYYKDICKILRPTGDYKNPKLEEVIKHLNITDSEISETANKYFQGSGNYHDARFDTAATYLTVINGIKKGLIPRNYFTKLLEAEGHHHHHH | soluble
14 | MSLKLLIEEFIPVEEISEEAKKEKLGNAKPPIFSLHYWWARKPLITARAAVLGALISKENLPMIVGNGDLKTNLLRILRIPKDINEGPRAHTQDPPAEYLKEAIIKTWGEIPTVLDPFAGGGSIPFEALRLGCNAVAVDYNPVAYLILKETLEYPKKYGMKLILEGHHHHHH | not soluble
15 | MSLKLPDEEFKLALEVARARIKAKDKFSRSDLWFDLEGLRYATHEVVADYRGRRLKGQGVKSIADVSCGVGIQLIFFAKHGIRSVGIDIDPIKIEFAKRNAEKYGVEVEWVVGDALSPEIIEKVDAEVIFSDPARPPEVPERNLEDLLPSPLKIYEAYKHKTDSFIFDLPPQIRREKVPWKGEFEYIDLFGHVNRLTEGHHHHHH | not soluble
16 | MSLKLSAREWKDFSLEELFTVRGTKTTPLIILRKNNKKREKQLPYVTTKSTYNGIDDFFSGFTEEGNVITIDSATDGYVFYQLNNFSASDHVEKLIPKFKLNKYIALFLVNCIKKATKCKYGYGYKFSQTRIKRQKIMLPASNNQPDFQFMERYIKEKHFNLKSRIKEKQNHEINDWRELDDVEWTPFSTSEVFNNIQRGKRLTKSNQIKGLTPYISSSGINNGLDNFISNNEKIREFDNCLTIANSGSVGSAFYHTYRFIASDHVTHLKNNNLNKFSYLFIANMLRRLEGKYSFNRGINDFRIKRERILLPTKNNRPEYEFMEQYMKRKENEILDRLEGHHHHHH | not soluble
17 | MSLKNARLHVINPDEVATSVLFRLLAPTGIESRHYPCAEDFLNQYQANGPACLLVDMLLPDWGPLRLLGELKRRQIHHPCIFMSYRCEEQTLMELLEQQAFAFIKKPLNQVKLTELIQVAMGQDQKEGHHHHHH | not soluble
18 | MSLKNLDINIVSEVRRIDNGRLDIPVYFSVCGDDASQYTGTKKQMGKGASPIQSEASACMELAERFSFFSFSKNADNFLLGDYEEMRAAGYPVLDMEHLLKSVHDTHTTVAQLEKLLAGIPMQWTWATKMTGEEGEVLIPFSWFFAINEFNGPSAGNTQEEAALQGLCEIVERDVCSRINRDKLPTAKIDVETIKDPVAVELLEKFAKNNIEVYLNDFSLETGIASVGALAIDRSTFPEKSEIVYTAGTTPNPEKAIIRAITEVAQLAGDFNTGSNYIASGLPKPLSMSEVTYLTETADQVTIDEMVDISDDNIYTEVKNCLDSLKNNGFDVYMIDVCHPQLQIPALYTIIPGAHFRERSMICNAGLFCAKLLVERIEDPAEQEVKLGEMSVLEGHHHHHH | not soluble
19 | MSLKNNEKLIKWLFDTNAIRVCPKDKPFWYTSGTIGPYYINTHFLYGSEEKANKLLEFIDKEKENILKCPDRILEETMKNYQSDPIYRGLIDEMCDFIKNNIDVNEVDYISGGERRDWFFSPIIAKLLNKPHITIYKDLTTVVSSDGKTEELKELNGESVLHIADLITEASSYERAWIPAIKNNGGRIKWSVVVVDRKQGGAELLKSYDIKSFSMVDIDEGHHHHHH | soluble
20 | MSLKNPPQILMPDVVYTDLKKPILVHIKDDESSIKNVQIILHKDDNTSAMVIADEKISNLKDITLQVALPKFGYKENVKSFVLEVIAKDSSFWNFFSGNEARKQIAVLVDNTAPKINIISNSYQIEQGGAGAVVFKADDANLDKVYIETNKGKIFKATPYVKEGYYAALIAWDARDEEFRAFVIATDKAGNISKERIRYYFVNRKYRVSNINLTDKFLDGKIENLANQYAPKDNNLNRYEKFKFVNETLRNSNEKLIHEITSKVPEEKIDNFDLNLFLPLKNGMKVADFADHRYYSYNGQFVSDSYHMGLDLASVAQAPIISNNAGKVVFAAENGIYGLNLIVYHGFGVYSLYGHCSSKNVDLDEMINKQSIIGKTGTSGLALGDHLHFGVLVQGVETRPEQWQDKKWIENNIYNVLNDGKKIILGKNEGHHHHHH | soluble
21 | MSLKNTGYILALCLTASGHVLAHDVWITGKQAENNVTAEIGYGHNFPSKGTIPDRRDFFENPRLYNGKETITLKPASTDYVYKTESASKDNGYVLSTYMKPGYWSRTSSGWKPVSREGRNDVAYCEFVTKYAKSFIPGEQQMPAQLYQSPTGHELEIIPLSDISRFSENVKLKVLYKTSPLAGAIMELDSVSYLTSSRHTHAVEHKHPVHKAELTFVTNEDGIVTVPSLHIGQWLAKVQNKKSFQDKSLCDETVDVATLSFSRNEGHHHHHH | soluble
22 | MSLKPESPNQDDFIIITMENLALYAIFDGHGPYGHDVSNYVQKELPYMIIKNENFLKNPKEVFTKAFLNIHENIERTTNAYLDSFTNKNSDSTMSGTTATIIVHLFKEKKLYVAYVGDSRAVLGKRKNGSKQLSAVELTKDHKPNCAAEKKRILSSGGQVMKLEGDIPYRVFIKNKFYPGLAMSRAIGDTIGHQIGIIAEPDFIEVNINEDEDILVLICSDGVWEFISSEEAVNLIYEFGYNNVQDAVENLARESWDRWLNEEENIVDDITIQAIYLSEKSKYLKEGHHHHHH | not soluble
